Patent publication US20090324593A1 (MacroGenics, published 2009)

target: T1, WNV E-protein domain III (dIII) (West Nile Virus, UniProt Q9Q6P4 580-705); experiment: antigen capture ELISA (sheet title: E9 captured E protein DIII), 2.5 ng/well domain III captured by mouse antibody E9, HRP anti-human IgG F(ab')2 detection
T1 construct: domain: Domain III; also called the antigen; the receptor
T1 sequence (looked up): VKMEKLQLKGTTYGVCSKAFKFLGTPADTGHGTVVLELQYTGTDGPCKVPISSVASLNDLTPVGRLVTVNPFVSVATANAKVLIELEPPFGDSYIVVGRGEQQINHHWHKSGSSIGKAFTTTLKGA
Protocol: Protocol for antibody-capture ELISA assay: 2.5 ng/well of dIII was captured on 96-well Maxisorp plates by mouse anti-WNV E-protein antibody E9 at room temperature for 2 hours. A serial of two-fold dilution of conditioned medium of chE16, huE16, huE16HC/ch2B6LC or chE16HC/huE16LC starting from 5 ng/well was added to each well. The plate was incubated at room temperature for 1 hour, then binding was detected by HRP conjugated F(ab′)₂ goat anti human IgG F(ab)′₂ specific secondary antibody (Jackson ImmunoResearch, Inc.) at 1:10,000 dilution. After incubation with the secondary antibody for approximately 45 minutes, the plate was developed using a TMB substrate. After 5 minutes incubation, the reaction was stopped by 1% H₂SO₄. The OD₄₅₀ nm was read by SOFTmax program. Between each step, the plates were washed 3 times with PBS/0.1% Tween20. Plates were blocked by 0.5% BSA in PBS/0.1% Tween 20 for 30 mins at room temperature before adding conditioned medium.
After three days in culture the amount of human IgG expressed was quantitated by ELISA. Binding to WNV E-protein domain III (dIII) was determined by ELISA and antibody-capture ELISA assays as described above.

Binder	EC50 (read off the curve)
Humanized E16 huE16-3.1 (huE16HC T71A / huE16LC) (antibody, V domains shown, also called huE16-3 (T71A)/huE16LC; huE16HC-2 T71A/huE16LC) VH: QVQLVQSGAEVKKPGASVKVSCKASGYTFTDYWIEWVRQAPGQGLEWMGDILCGTGRTRYNEKLKARVTMTADTSTSTAYMELRSLRSDDTAVYYCARSASYGDYADYWGQGTTVTVSS VL: DIVMTQSPDSLAVSLGERATINCKASQDVSTAVAWYQQKPGQPPKLLIYWASTRHTGVPDRFSGSGSGTDFTLTISSLQAEDVAVYYCQQHYTTPLTFGQGTKLEIK	~0.01 µg/mL
Humanized E16 huE16-2.2 (huE16HC-2 V67A, M69F, T71A / huE16LC-2 Y49S) (antibody, V domains shown) VH: QVQLVQSGAEVKKPGASVKVSCKASGYTFTDYWIEWVRQAPGQGLEWMGDILCGTGRTRYNEKLKARATFTADTSTSTAYMELRSLRSDDTAVYYCARSASYGDYADYWGQGTTVTVSS VL: DIVMTQSPDSLAVSLGERATINCKASQDVSTAVAWYQQKPGQPPKLLISWASTRHTGVPDRFSGSGSGTDFTLTISSLQAEDVAVYYCQQHYTTPLTFGQGTKLEIK	~0.01 µg/mL
Humanized E16 huE16-2.1 (huE16HC-2 V67A, M69F, T71A / huE16LC) (antibody, V domains shown) VH: QVQLVQSGAEVKKPGASVKVSCKASGYTFTDYWIEWVRQAPGQGLEWMGDILCGTGRTRYNEKLKARATFTADTSTSTAYMELRSLRSDDTAVYYCARSASYGDYADYWGQGTTVTVSS VL: DIVMTQSPDSLAVSLGERATINCKASQDVSTAVAWYQQKPGQPPKLLIYWASTRHTGVPDRFSGSGSGTDFTLTISSLQAEDVAVYYCQQHYTTPLTFGQGTKLEIK	~0.01 µg/mL
Humanized E16 huE16-3.2 (huE16HC T71A / huE16LC-2 Y49S) (antibody, V domains shown, also called hE16-3.2; huE16-2 (T71A)/huE16LC-2 (Y49S)) VH: QVQLVQSGAEVKKPGASVKVSCKASGYTFTDYWIEWVRQAPGQGLEWMGDILCGTGRTRYNEKLKARVTMTADTSTSTAYMELRSLRSDDTAVYYCARSASYGDYADYWGQGTTVTVSS VL: DIVMTQSPDSLAVSLGERATINCKASQDVSTAVAWYQQKPGQPPKLLISWASTRHTGVPDRFSGSGSGTDFTLTISSLQAEDVAVYYCQQHYTTPLTFGQGTKLEIK	~0.01 µg/mL
